Results from the nanobody polyreactivity screen of Harvey et al. (2022).

Test: yeast display, Sf9 membrane polyspecificity reagent, FACS + sequencing; frameworks hold sequencing errors
Method in brief: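 A synthetic nanobody library was expressed on Saccharomyces cerevisiae BJ5465 by galactose induction for 36–48 hours. The library was stained for 1 hour at 4 °C with 10% biotinylated, detergent-solubilized Sf9 membrane reagent and enriched with streptavidin microbeads before FACS. Low and high (top ~1%) gates were set on anti-HA fluorescence for expression and streptavidin fluorescence for reagent binding, and each polyreactivity label reflects the gate of origin.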

Question: With “QVQHVESGGGLVQAGGSLRLSCAASGRIFDLNAMGWYRQATGKERELVAAISYSGGRTFSADSVKRRFTISRDNAKNTVYLQMNSLKPEDTAVYYCAAVAYLNWTPHYYWGQGTQVTVSS” as the sequence, how does the “polyreactivity (PSR sort gate)” value read?
Answer: low polyreactivity

Question: With “QVQHVESGGGLVQAGGSLRLSCAASGRIFDLYAMGWYRQAPGKERELVAAITSGSTYYADSVKGRFTISRDNAKNTVYLQMNSLKPEDTAVYYCAADLSYWRGGHSRNYWGQGTQVTVSS” as the sequence, how does the “polyreactivity (PSR sort gate)” value read?
Answer: low polyreactivity

Question: Which “polyreactivity (PSR sort gate)” value does the source give for “QVQHVESGGGLVQAGGSLRLSCAASGRIFDSYAMGWYRQAPGKERELVATISWDSASTYYADTVKGRFTISRDNAKNTVYLQMNCLNPEDTAVYYCAAGGSSSWAFNYWGQGTQVTVSS” here?
Answer: low polyreactivity

Question: With “QVQHVESGGGLVQAGGSLRLSCAASGRIFGRNNMGWYRQAPGKERELVAAISSSGGSTRYADSVKGRFTISRDNAKNTVYLQMNSLKPEDTGVYYCAARRAYYYEGGYDYWGQGTQVTVSS” as the sequence, how does the “polyreactivity (PSR sort gate)” value read?
Answer: high polyreactivity

Question: Which “polyreactivity (PSR sort gate)” value does the source give for “QVQHVESGGGLVQAGGSLRLSCAASGRIFGSNAMGWYRQPPGKDRELVAAITWSGGSTYYADSVKGRFTISRDNAKNTVYLQMNSLKPEDTAVYDCAAPASRTKGPFPGYDYWGQGTQVTVSS” here?
Answer: high polyreactivity

Question: With “QVQHVESGGGLVQAGGSLRLSCAASGRIFGSYAMVGYIQAPGKETELDAAIRWSGGNTYYADSVKGRFTITRDNAKNTVYFQMNSLKPEDTAVYYCNARTARSYSKTSYRFSSYNYWGQGTQVTVSS” as the sequence, how does the “polyreactivity (PSR sort gate)” value read?
Answer: high polyreactivity

Question: Which “polyreactivity (PSR sort gate)” value does the source give for “QVQHVESGGGLVQAGGSLRLSCAASGRIFRFNAMGWYRKAPGKERELVAAISWRSSNTYYADSVKGRFTISRDNAKNSVYLQMNSLKPEDTAVYYCAASTASSKYRYEYWGQGTQVTVSS” here?
Answer: high polyreactivity

Question: Which “polyreactivity (PSR sort gate)” value does the source give for “QVQHVESGGGLVQAGGSLRLSCAASGRIFSANAMGWYRQAPGKERELVAAISGSGGSTFYADSVKGRFTISRDNAKNTVYLQMNSLKPEDTAVYYCAARRYRSGYYSFYYWGQGTQVTVSS” here?
Answer: high polyreactivity

Question: Which “polyreactivity (PSR sort gate)” value does the source give for “QVQHVESGGGLVQAGGSLRLSCAASGRIFSYYAMGWYRQAPGKERELVAVISRRGDNTYYADSVKGRFTISRDNAKKTVYLQMNSLKPEDTAVYYCAARFGYLTFYSSGYYWGQGTQVTVSS” here?
Answer: high polyreactivity

Question: With “QVQHVESGGGLVQAGGSLRLSCAASGRIFYGNAMGWYRQAPGKERELVAGITRSSGTSTDYADSVKGRFTISRDNAKNSVYLQMNSMKPEDCAVYYCAAPPDSYYFYKVPVVPYDYWGQGTQVTVSS” as the sequence, how does the “polyreactivity (PSR sort gate)” value read?
Answer: low polyreactivity

Question: For “QVQHVESGGGLVQAGGSLRLSCAASGRTFAHYAMGWYRQAPGKERELVAAISWGGTRTYYADSVKGRFTISRDNAKNTVYLQMNSLKPEDTAVYYCAADYGYQDDYWGQGTQVTVSS”, which “polyreactivity (PSR sort gate)” value is on record?
Answer: low polyreactivity

Question: With “QVQHVESGGGLVQAGGSLRLSCAASGRTFGLNAMGWYRQAPGKERELVAAISGSGGRTYYADSVKGRFTISRDNAKNTVYLQMNSLKPEDTAVYYCARVPSGQLEYDYWGQGTQVTVSS” as the sequence, how does the “polyreactivity (PSR sort gate)” value read?
Answer: high polyreactivity

Question: For “QVQHVESGGGLVQAGGSLRLSCAASGRTFGWYTMGWYRQAPGKEREFVAAISSSDTSTYYADSVKGRFTISRDNAKNTVYLQMNSLKPEDTAVYYCAADPPSWQWFVGYSYDYWGQGTQVTVSS”, which “polyreactivity (PSR sort gate)” value is on record?
Answer: low polyreactivity

Question: For “QVQHVESGGGLVQAGGSLRLSCAASGRTFTFNAMGWYRPAPGKERELVARIDWRGITYADSVKGRFTISRDNAKNTVYLQMNSLKPEDTAVYDCAAVWLHISYYGKYDYWGQGTQVTVSS”, which “polyreactivity (PSR sort gate)” value is on record?
Answer: low polyreactivity

Question: Which “polyreactivity (PSR sort gate)” value does the source give for “QVQHVESGGGLVQAGGSLRLSCAASGRTFTPNAMGWYRPPPGKVREMVAAIDWRGGRTYYADSVKGRFTISRDNAKNTVYLQKNSLKPEDTAVYYCAARVDGYQYKSAGYSYGVFYWGQGTQVTVSS” here?
Answer: low polyreactivity

Question: Which “polyreactivity (PSR sort gate)” value does the source give for “QVQHVESGGGLVQAGGSLRLSCAASGRTLYNYAMGWYRQAPGKEWELVAAISGSGGSTYYADSVKGRFTISRDNAKNTVYLQMNSLKPEDTEVYFCAKYRGIYPDVRGTYYWGQGTQVTVSS” here?
Answer: high polyreactivity

Question: For “QVQHVESGGGLVQAGGSLRLSCAASGRTYVNYVMGWYRQAPGKEREFVAAISRNGGSTYYADSVKGRFSISRDNAKYTFYLQMNSLKPEDTAVYYCAARPRRRYYGSDSWGQGTQVTVSS”, which “polyreactivity (PSR sort gate)” value is on record?
Answer: high polyreactivity

Question: For “QVQHVESGGGLVQAGGSLRLSCAASGSIFDRNAMGRYRQAPGKERELVAAISGGDSTYYADSVKGRFTISRDNAKNTVYLQMNSLKPEDTAVYYCNVDFKTEYDYWGQGTQVTVSS”, which “polyreactivity (PSR sort gate)” value is on record?
Answer: low polyreactivity

Question: For “QVQHVESGGGLVQAGGSLRLSCAASGSIFDVYTMGWYRQAPGKQRELVAAINTGGGSTYYADSVKGRFTISRDNAKNTVYLQMISLKPEDTAVYYCAASVYHYGPLYYWGQGTQVTVSS”, which “polyreactivity (PSR sort gate)” value is on record?
Answer: low polyreactivity

Question: For “QVQHVESGGGLVQAGGSLRLSCAASGSIFIPYAMGWSRQPPGKERELVAAISWSGSSTYYADSVKGRFTISRDNAKNTVYLQMISLKPEDTAVYYCAAYNAYRRGYDYWGQGTQVTVSS”, which “polyreactivity (PSR sort gate)” value is on record?
Answer: high polyreactivity

Question: Which “polyreactivity (PSR sort gate)” value does the source give for “QVQHVESGGGLVQAGGSLRLSCAASGSIFNTYTMGWYRQAPGKERELVAAISSGGSTYYADSVKGRFSISRDNAKNTVYLHMNSLKPEDTAVYYCAAYGHSFQIYDYWGQGTQVTVSS” here?
Answer: low polyreactivity

Question: For “QVQHVESGGGLVQAGGSLRLSCAASGSIFPHYAMGWYRQAPGKERELVAAISYSGGRTYYADSVKGRFTISRDNAKNTVYLQMNSLKPEDTAVYYCAKPERVLYHGDYWGQGTQVTVSS”, which “polyreactivity (PSR sort gate)” value is on record?
Answer: low polyreactivity

Question: With “QVQHVESGGGLVQAGGSLRLSCAASGSIFRFYAMGWYRQAPGKERELVAAISWSGGSTYYADSVKGRFTISRDNAKNTVYLQMNSLKPEDTAVYYCNTRYYGGFDSWGQGTQVTVSS” as the sequence, how does the “polyreactivity (PSR sort gate)” value read?
Answer: high polyreactivity

Question: For “QVQHVESGGGLVQAGGSLRLSCAASGSIFRRNAMGRYRQAPGKVRELVAGISGGGSTYYADSVKGRFTISRDNAKNTVYLQMNSMKPEDTAVYYCATDKHYRSAGFDYWGQGTQVTVSS”, which “polyreactivity (PSR sort gate)” value is on record?
Answer: low polyreactivity

Question: With “QVQHVESGGGLVQAGGSLRLSCAASGSIFRYYAMGWYRQAPGKERELVAASTSGGSTSYADSVKGRFTISRDNAKNTVYLQMNSLKPEDTAVYYCAKRSRHNKYYYWGQGTQVTVSS” as the sequence, how does the “polyreactivity (PSR sort gate)” value read?
Answer: high polyreactivity

Question: For “QVQHVESGGGLVQAGGSLRLSCAASGSIFYTYPMGWNRQAPGKERELVAAISFSDGDTYYADSVKGRFTISRDNAKNTVYLQMIRLKPVDTAVYYCNDYVYLPNYPYDYWGQGTHVTVSS”, which “polyreactivity (PSR sort gate)” value is on record?
Answer: low polyreactivity

Question: Which “polyreactivity (PSR sort gate)” value does the source give for “QVQHVESGGGLVQAGGSLRLSCAASGSIIYRNAMGWSRQPPGKERELVAAISWSAARTYYADSVKGRFTISRDNAKNTVYLQMNSQKPEDTAVYYCNKAARFTSHQGYDSWGQGTQVTVSS” here?
Answer: high polyreactivity

Question: Which “polyreactivity (PSR sort gate)” value does the source give for “QVQHVESGGGLVQAGGSLRLSCAASGSILFKYAMGWSRQAPGQESELVATITSGGSTYYADSVKGRVTISRDNAKNTVYLQMNSLKPEDTAVYYCATGQYYYDGIVAFFELDYWGQGTQVTVSS” here?
Answer: low polyreactivity

Question: With “QVQHVESGGGLVQAGGSLRLSCAASGSLFYGNTMGWARQAPGKERELVAAISNDDSRTYYADSVKGRFTISRDNAKNTVYLQMNSLKPEDTAVYYSATRGYPYRYRQTLNYWGQGTQVTVSS” as the sequence, how does the “polyreactivity (PSR sort gate)” value read?
Answer: high polyreactivity

Question: Which “polyreactivity (PSR sort gate)” value does the source give for “QVQHVESGGGLVQAGGSLRLSCAASGSTFAINAMGGYRQAPGKERELVAAISSSGSTNYADSVKGRFTISRDNAKNTVYLQMNSLKPEDTAVSYCAADRVWGTPQAYVPSQFDYWGQGTQVTVSS” here?
Answer: low polyreactivity

Question: Which “polyreactivity (PSR sort gate)” value does the source give for “QVQHVESGGGLVQAGGSLRLSCAASGSTFDAYAMGWYRQAPGKERELVAAISWSDTTTYYADSVKGRFTISRDTAKNTVYLQMYSLKPEDTAVSYCADEYYFTDGSYTSDYWGPGTQVTVSS” here?
Answer: high polyreactivity

Question: For “QVQHVESGGGLVQAGGSLRLSCAASGSTFFRYAKGWYRQAPGTERELVAAISYSGDSTYYADSVKGRFTISRDNAKNTVYLQMNSLKPEDSAVYYCNAVYFRYRYNYWGQGTQVTVSS”, which “polyreactivity (PSR sort gate)” value is on record?
Answer: high polyreactivity

Question: With “QVQHVESGGGLVQAGGSLRLSCAASGSTFGRYGMGWYRQAPGTERELVAAISRGGGTNYADSVKGRFTISRDNAKKTVYLQMNSLKPEDTAVYYCNARWYYALYDYWGQGTQVTVSS” as the sequence, how does the “polyreactivity (PSR sort gate)” value read?
Answer: low polyreactivity

Question: With “QVQHVESGGGLVQAGGSLRLSCAASGSTFGWYAMGWYRQAPGKVRELVAAITRRGTRTYYADSVKGRFTISRDNAKNTVYLQMNSLKPEDTAVYYCNARGFPGKFGYWGQGTQVTVSS” as the sequence, how does the “polyreactivity (PSR sort gate)” value read?
Answer: high polyreactivity

Question: For “QVQHVESGGGLVQAGGSLRLSCAASGSTFHLYAIGWYRQAPGKEREFVAAIRGRGGNTYADSVKGRFTISRDNAKNTVYLQMNSVKPEDTAVYSCAAPLLRDLRSPYSYNYWGQGTQVTVSS”, which “polyreactivity (PSR sort gate)” value is on record?
Answer: low polyreactivity

Question: With “QVQHVESGGGLVQAGGSLRLSCAASGSTFKHNAMGWSRQAPGKERELVAGISWGGSSTYYADSVKGRFTISRDKAKNTVYLQMNSLKPEDTAVYYCAKGGYRRYGYDYWGQGTQVTVSS” as the sequence, how does the “polyreactivity (PSR sort gate)” value read?
Answer: low polyreactivity

Question: With “QVQHVESGGGLVQAGGSLRLSCAASGSTFQMYAMGWYRQAPGKEMELVASISWSGGSTYYAVSVMGRFTISRDNAKNTFYLQMNSLKPEDTAVYYCKADFWWRYRPGAVFRSYGYWGQGTQVTVSS” as the sequence, how does the “polyreactivity (PSR sort gate)” value read?
Answer: low polyreactivity

Question: With “QVQHVESGGGLVQAGGSLRLSCAASGSTFSHYAMGWYRQAPGKERELVASINSAGSTNYADSVKGRFTISRDNAKNTVYLQMNSLKPEDTAVYYCNTEVQVYSYNYWGQGTQVTVSS” as the sequence, how does the “polyreactivity (PSR sort gate)” value read?
Answer: low polyreactivity

Question: Which “polyreactivity (PSR sort gate)” value does the source give for “QVQHVESGGGLVQAGGSLRLSCAASGSTFYENAMGWYRQAPGKERELGAGIRSTGRTYYADSVKGRFTISRDNAKNTVYIQMNSLKPEDTAVYYCAAYVGTYGEYDYWGQGTQVTVSS” here?
Answer: low polyreactivity

Question: For “QVQHVESGGGLVQAGGSLRLSCAASGSTIQNNAMGWYRQPPGKERELVAAMNNGGSTNYADSVKGRFTISRDNAKNTVYLQMNSLIPEDSAGYYCNTDRHHADYQWGWPSAFEEFGYWGLGTQVTVSS”, which “polyreactivity (PSR sort gate)” value is on record?
Answer: low polyreactivity

Question: For “QVQHVESGGGLVQAGGSLRLSCAASGSTLSSYAMGWSRQAPGKERELVAAINSSGGRTYYADSVKGRFTISRDNAKNTVYLKMNSVKPEDTEVYYCAATRGRYREDEDYWGQGTQVTVSS”, which “polyreactivity (PSR sort gate)” value is on record?
Answer: high polyreactivity

Question: With “QVQHVESGGGLVQAGGSLRLSCAASGSTSYPYAMGWYRQAPGKERELVATITSGGRTNYADSVKGRFTISRDNAKNTVYLQMNSLKPEDTAVYYCNARFYRWRSYGYDYWGQGTQVTVSS” as the sequence, how does the “polyreactivity (PSR sort gate)” value read?
Answer: high polyreactivity

Question: With “QVQHVESGGGLVQAGGSLRLSCAASGTTFYFYAMGWYRQAPGKERELVAAITYSGGSTYYADSVKGRFTISRDNAKNTVYLQMNSLKPEDTAVYYCAAQWRRHSTRSRYYYWGQGTQVTVSS” as the sequence, how does the “polyreactivity (PSR sort gate)” value read?
Answer: high polyreactivity
